Experimental data from patent US20070190054A1 (published 2007).

Molecular target: T1, C3b (purified; species not stated in Examples 12, 13, 19, 20) (Homo sapiens (Human), UniProt P01024 23-667; P01024 749-1663, The two chains are disulfide-linked. The internal thioester of the alpha' chain (Cys-Gln) is broken in C3b. Natural glycosylation is present. The protein carries an Alexa488 label in the …)
T1 construct: also called complement C3b; C3b-A488
Assay: SPR (Biacore 2000), C3b amine-coupled to a CM5 chip, CRIg-Fc injected

Kd: 250 nM
B1: murine CRIg-Fc fusion protein (Fc fusion)
chain: HPTLKTPESVTGTWKGDVKIQCIYDPLRGYRQVLVKWLVRHGSDSVTIFLRDSTGDHIQQAKYRGRLKVSHKVPGDVSLQINTLQMDDRNHYTCEVTWQTPDGNQVIRDKIIELRVRKYNPPRINTEAPTTLHSSLEATTIMSSTSDLTTNGTGKLEETIAGSGRNLPIFAIIFIISLCCI
notes: Produced in CHO cells; also called muCRIg-Fc; MuCRIg Fc; not shown: hinge, CH2 and CH3 domains of murine IgG1
